We go through one substance from paper PMC12892892.

In the experiment the target is recombinant natriuretic peptide receptor B (NPR-B) (UniProt P20594). As to the kind of experiment: SPR; recombinant NPR-B immobilised on a CM5 chip by amine coupling (10 ug/mL, 10 mM sodium acetate pH 4.5); CBD-CNP injected at 1.25, 2.5, 5.0, 10 and 20 uM in 50 mM Tris HCl pH 7.5, 200 mM NaCl, 1 mM CaCl2; Biacore X; single-cycle kinetics, 1:1 Langmuir model.
Chain of UniProt P20594 (P20594 23-458): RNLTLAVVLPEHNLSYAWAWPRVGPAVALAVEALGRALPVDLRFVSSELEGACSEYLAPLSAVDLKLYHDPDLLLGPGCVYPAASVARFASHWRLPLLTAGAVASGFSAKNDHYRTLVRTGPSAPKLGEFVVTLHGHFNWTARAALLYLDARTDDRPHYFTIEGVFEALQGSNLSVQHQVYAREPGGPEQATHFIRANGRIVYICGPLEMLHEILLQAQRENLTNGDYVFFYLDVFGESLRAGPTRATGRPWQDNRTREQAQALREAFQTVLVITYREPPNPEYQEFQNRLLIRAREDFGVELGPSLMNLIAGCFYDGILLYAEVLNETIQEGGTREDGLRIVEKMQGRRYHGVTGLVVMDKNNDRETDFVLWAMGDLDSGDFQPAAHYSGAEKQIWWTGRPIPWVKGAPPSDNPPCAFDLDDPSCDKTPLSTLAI

Consider “CBD-CNP (collagen-binding domain fused to C-type natriuretic peptide CNP-37) (from UniProt Q9X721 1003-1118)”, for which the Kd is 495 µM.
